Assay type in all cases: biochemical
Data set [1] is described as follows: Effect of surfactants on hydrolase activity of cutinase. As to conditions: for Compatibility of surfactant with the cutinase: at the concentrations tested. The procedure:
This example measures the effect of surfactants (detergents) on the hydrolytic activity of cutinase. Specifically, in this example, an aqueous solution was prepared so as to contain 120 nanomoles per liter of cutinase (isolated in a substantially pure form from P. mendocina, ATCC 53552, described in U.S. Ser. No. 932,959 filed Nov. 19, 1986 and incorporated herein by reference); and 0.1 moles/liter of Tris Tris(hydroxymethyl)aminomethane! buffer maintained at pH 8.0 and 25° C. In some cases, surfactant sodium dodecyl sulfate (SDS) and/or Triton X-100™ (octoxynol), available from Rohn & Haas, Philadelphia, Pa.! was then added in the amount specified in Table 4 below. In this example, the enzymatic activity of the cutinase was measured in these solutions using the amount of p-nitrophenol generated from the p-nitrophenylbutyrate substrate as measured by following the absorbance of p-nitrophenol at 410 nm. The enzymatic activity of the cutinase under the above conditions and in the absence of surfactant is arbitrarily assigned a value of 100 percent and enzymatic activity of the other test solutions are reported as a percentage of the standard.

A short description of data set [2]: Stability of cutinase against proteases, hydrolysis of p-nitrophenyl butyrate. As to conditions: for Cutinase activity after time: pH 10, 37° C. As to the method:
A. In part A of this example, the cutinase employed was that cutinase isolated in a substantially pure form from P. mendocina, ATCC 53552, described in U.S. Ser. No. 932,959 filed Nov. 19, 1986 and incorporated herein by reference and the protease employed was either Maxacal™ (a substilisin protease available from Gist-Brocade, N.V., Delft, Holland) or Esperase™ (a protease available from Novo Industries, Copenhagen, Denmark).
In this example aqueous test solutions containing 42 μg/ml of cutinase and either 35 μg/ml (Maxacal™) or 64 μg/ml (Esperase™) of protease were prepared. The solutions were buffered to pH 10 with 0.1M sodium phosphate. The solutions were incubated at 37° C. and the enzymatic activity of cutinase was periodically monitored by the hydrolysis of a model cutinase substrate p-nitrophenyl butyrate as measured by the absorbance change at 410 nm in 100 mM Tris buffer containing 0.1% Triton X-100 at pH 8. This value correlated against a standard, i.e., an aqueous solution containing cutinase but no protease. Diminishment in the enzymatic activity of the cutinase in the test solutions as compared to the standard is attributed to degradation of the cutinase by the protease.

A short description of data set [3]: Cutinase activity after 28 minutes with proteases, pH stat hydrolysis of trioctanoin. The note with it: 2 μg/ml cutinase, pH 10, 37° C. The text has this: B. In part B of this example, the cutinase employed was the same as in part A above whereas the protease employed was either Alcalase™ (an alkaline protease available from Novo Industries, Copenhagen, Denmark), a mixture of Alcalase™ and Savinase™ (an alkaline protease available from Novo Industries, Copenhagen, Denmark), or a mixture of Savinase™ and Esperase™ (a protease available from Novo Industries, Copenhagen, Denmark).
In this example, aqueous test solutions containing cutinase contained 2 μg/ml of cutinase and the amount of protease specified in Table 2 below. The solutions were incubated at 37° C. for 28 minutes at pH 10 and the enzymatic activity of cutinase was periodically measured in a pH stat by the hydrolysis of trioctanoin in a 0.5 percent trioctanoin and a 0.05 percent sodium dodecyl sulfate emulsion. The measured value was correlated against a standard, i.e., an aqueous solution containing cutinase but no protease. Diminishment in the enzymatic activity of the cutinase in the test solutions as compared to the standard is attributed to degradation of the cutinase by the protease.

The nature of data set [4]: pH stability of bacterial cutinase, half-life at 50° C., hydrolysis of trioctanoin in polyvinyl alcohol emulsions. As to the method:
In this example the half-life of the same cutinase used in Example 1 above was measured at 50° C. at various pHs. Specifically, cutinase was introduced into a 0.1M sodium phosphate buffer at the pH specified below and the activity was measured by hydrolysis of trioctanoin in polyvinyl alcohol emulsions. The time required for the activity to diminish to 1/2 of its initial value is taken as the half-life at that particular pH.

Data set [5] in a line: Stability of cutinase to oxidants (hydrogen peroxide). The note with it: for Percent Cutinase Activity: pH 8.4, 25° C., two hours. As to the method: Specifically, in this example, an aqueous solution of 0.5 mg/ml of cutinase (isolated in a substantially pure form from P. mendocina, ATCC 53552, described in U.S. Ser. No. 932,959 filed Nov. 19, 1986 and incorporated herein by reference) containing 0.1M sodium phosphate buffer was incubated in varying amounts of hydrogen peroxide wherein the aqueous solution was maintained at pH 8.4 and at 25° C. for two hours. The enzymatic activity of the cutinase under the above conditions and in the absence of hydrogen peroxide is arbitrarily assigned a value of 100% and enzymatic activity of the other test solutions are reported as a percentage of the standard.

A short description of data set [6]: Removal of cutin-like stains from an insoluble support matrix, 3H-triolein hydrolysis. As to conditions: polyester swatches, 1 percent BSA. As to the method: The substrate was prepared by diluting 1 mCi of ^3 H-Triolein (0.5 mCi/ml, […]) into 17 ml isopropanol containing 421 mg of non-^3 H-Triolein. The final concentration was about 23-24 mg Triolein/ml. This was divided into 1 ml aliquots and stored.
Polyester cloth swatches cut into approximately 1/2 inch×1/2 inch squares were laid onto a glass plate. 3 μl of the above mixture was pipetted onto each swatch and allowed to air dry.
A solution comprising 1 percent fatty acid free bovine serum albumin (BSA), and 100 mM of a suitable buffer, preferably Tris (pH range 6 to 9) or glycine (pH range 8 to 11) was allowed to equilibrate to a fixed temperature (preferably 32° C.) in a shaking water bath. An aliquot of cutinase (0.25 to 1.5 μg/ml) was then added to 2.8 ml of the BSA solution, followed by the insertion of four of the cloth swatches, taking care to keep the swatches as separate as possible. The cutinase added was isolated from Fusarium solani pisi, Colletotrichum capsici, Pseudomonas mendocina or Pestalotia subcuticularia. The entire mixture was then allowed to shake in the constant temperature bath at 150 rpm for 15 minutes.
An aliquot of the liquor, preferably 20% of the entire volume was pipetted into a scintillation vial containing 10 ml of Ecolume™ scintillation fluid. After chilling, the scintillation vials were counted. […]

Data set [7] in a line: Cutinase activity against pH (FIG. 1).

Where only a bound is given, the exact number is not on record here.

For `CCCCCCCCCCCCOS(=O)(=O)[O-].[Na+]` [sodium dodecyl sulfate, reference compound], the “Compatibility of surfactant with the cutinase” value in data set [1] was “is not”.
For “octoxynol [Triton X-100, reference compound]”, the “Compatibility of surfactant with the cutinase” value in data set [1] is listed as “compatible with the cutinase”.

B1: cutinase: cutinase isolated in a substantially pure form from Pseudomonas mendocina ATCC 53552, amino acid sequence of SEQ ID NO:1 (protein)
chain: APLPDTPGAPFPAVANFDRSGPYTTSSQSEGPSCRIYRPRNLGQGGVRHPVILWGNGTGAGPSTYAGLLSHWASHGFVVAAAETSNAGTGREMLACLDYLVRENDTPYGTYSGKLNTGRVGTSGHSQGGGGSIMAGQDTRVRTTAPIQPYTLGLGHDSASQRRQQGPMFLMSGGGDTIAFPYLNAQPVYRRANVPVFWGERRYVSHFEPVGSGGAYRGPSTAWFRFQLMDDQDARATFYGAQCSLCTSLLWSVERRGL
Take B1: the “Cutinase activity after time” value in data set [2] (Esperase 64 μg/ml, 0 min) is 1.73 absorbance change at 410 nm; in data set [2] (Esperase 64 μg/ml, 5 min), 1.64 absorbance change at 410 nm; in data set [2] (Esperase 64 μg/ml, 10 min), 1.59 absorbance change at 410 nm; in data set [2] (Esperase 64 μg/ml, 15 min), 1.51 absorbance change at 410 nm; in data set [2] (Esperase 64 μg/ml, 840 min), 0.456 absorbance change at 410 nm; in data set [2] (Maxacal 35 μg/ml, 0 min), 1.68 absorbance change at 410 nm. In addition, the “Cutinase activity after time” value is on record as 1.58 absorbance change at 410 nm in data set [2] (Maxacal 35 μg/ml, 5 min); 1.72 absorbance change at 410 nm in data set [2] (Maxacal 35 μg/ml, 10 min); 1.66 absorbance change at 410 nm in data set [2] (Maxacal 35 μg/ml, 15 min); 0.134 absorbance change at 410 nm in data set [2] (Maxacal 35 μg/ml, 840 min); 1.57 absorbance change at 410 nm in data set [2] (Standard, no protease, 0 min, 42 μg/ml cutinase); 1.60 absorbance change at 410 nm in data set [2] (Standard, no protease, 5 min). In addition, the “Cutinase activity after time” value is reported as 1.47 absorbance change at 410 nm in data set [2] (Standard, no protease, 10 min); 1.63 absorbance change at 410 nm in data set [2] (Standard, no protease, 15 min); 1.61 absorbance change at 410 nm in data set [2] (Standard, no protease, 840 min). Moreover, in data set [2] (results from A and B of Example 1, periods of time commonly encountered in cleaning use), the “Stability in aqueous solution in the presence of a protease” value was “stable”. Further, the “Cutinase activity in the aqueous solution after 28 minutes” value in data set [3] (Alcalase 34.7 μg/ml) is listed as 420.3 units of octanoic acid released; in data set [3] (Alcalase/Savinase 17.7/20.0 μg/ml), 428.0 units of octanoic acid released; in data set [3] (Esperase/Savinase 15.0/13.0 μg/ml), 411.0 units of octanoic acid released; in data set [3] (no protease) it was 417.8 units of octanoic acid released. Moreover, the “Stability of cutinase activity at pH” value in data set [4] (neutral and alkaline pHs, 50° C.) is “sufficiently stable”. For the same molecule, the “Half-life at 50° C.” value in data set [4] (pH 7, 0.1M sodium phosphate buffer) is 30 h; in data set [4] (pH 8, 0.1M sodium phosphate buffer) it was 25 h; in data set [4] (pH 9, 0.1M sodium phosphate buffer) it was 12 h; in data set [4] (pH 10, 0.1M sodium phosphate buffer), 0.3 h. Also, the “Percent Activity” value in data set [1] (Triton X-100 0, SDS 0 weight percent (standard assigned 100), pH 8.0, 25° C.) worked out at 100%; in data set [1] (Triton X-100 0, SDS 0.05 weight percent), 30%; in data set [1] (Triton X-100 0, SDS 0.1 weight percent) it was 23%; in data set [1] (Triton X-100 0, SDS 0.2 weight percent), 14%; in data set [1] (Triton X-100 0, SDS 0.4 weight percent), 6%; in data set [1] (Triton X-100 0.05, SDS 0.05 weight percent), 132%. Moreover, the “Percent Activity” value amounted to 130% in data set [1] (Triton X-100 0.1, SDS 0.1 weight percent); 78% in data set [1] (Triton X-100 0.2, SDS 0 weight percent); 125% in data set [1] (Triton X-100 0.2, SDS 0.05 weight percent); 138% in data set [1] (Triton X-100 0.2, SDS 0.1 weight percent); 98% in data set [1] (Triton X-100 0.2, SDS 0.2 weight percent); 60% in data set [1] (Triton X-100 0.4, SDS 0 weight percent). In addition, in data set [1] (Triton X-100 0.4, SDS 0.4 weight percent), the “Percent Activity” value is given as 78%. Moreover, the “Stability of cutinase activity in the presence of an oxidant” value in data set [5] (hydrogen peroxide) is listed as “sufficiently stable”. In addition, the “Percent Cutinase Activity” value was determined as 100% in data set [5] (hydrogen peroxide 0 ppm (standard assigned 100%)); 86% in data set [5] (hydrogen peroxide 100 ppm); 86% in data set [5] (hydrogen peroxide 200 ppm); 91% in data set [5] (hydrogen peroxide 500 ppm); 95% in data set [5] (hydrogen peroxide 1000 ppm). For the same molecule, in data set [6], the “Sp. activity triolein hydrolysis” value is given as 157,045 cnts./10 min./μg enzyme. In addition, the Triolein hydrolysis in data set [6] (cutinase 0.25 to 1.5 μg/ml) is 9,250 cnts./10 min. For the same molecule, the “pH at which cutinase activity reaches a maximum” value in data set [7] (FIG. 1) amounted to 7. In data set [7] (up to pH 11, FIG. 1), the “Share of maximum activity maintained” value is listed as not below 80%.

The values are drawn from patent US5512203A, “Cutinase cleaning compositions” (Genencor International, Inc., priority 1994, dated 1996).
